One block for each molecule: values may come before it.
What was measured:
merlin kinase = assay: In-vitro merlin kinase assay with kinase inhibitors; assay type: biochemical; conditions: for concentration range inhibiting the merlin kinase: inhibition of the activity of the merlin kinase
[1] = molecular target: T1, GST-merlin pseudo-substrate (residues 478-535 of merlin fused to glutathione-S-transferase), P35240
T1 chain: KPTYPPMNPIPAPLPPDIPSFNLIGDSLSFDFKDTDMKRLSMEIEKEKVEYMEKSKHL

[2] = molecular target: merlin expressed from an inducible allele in the RT4-D6P2T cell line
[3] = test system: phosphorylation of merlin induced by activated Rac or cdc42; assay: In-vivo merlin phosphorylation in co-transfected NIH3T3 cells (western blot); assay type: cell-based; conditions: NIH3T3 cells co-transfected with merlin, activated Rac or cdc42 and the PAK2 AID
Protocol: In the in-vitro kinase assays where full-length merlin was used, cells transfected with merlin expression vectors were extracted, and merlin was immunoprecipitated using a commercially available antibody SC-331 (Santa Cruz) and Protein A-agarose beads. In the in-vivo studies, cells were transfected with various expression vectors and harvested after 48 hours into SDS-boiling buffer (10 mM Tris pH 7.5, 50 mM NaF, and 1% SDS). Cells were scraped off the plates and boiled for 5′. Protein concentration was determined by the BCA method (Pierce) and resolved by 9% SDS-PAGE and western blot analysis.
The inhibitory fragment in PAK2 resides between residues 82-146 (equivalent to the 83-149 AID of PAK1). […] To further investigate the role of PAK2 in induction of merlin phosphorylation, the ability of the AID to inhibit this activity was assessed. NIH3T3 cells were co-transfected with expression vectors for merlin, activated Rac, or cdc42 and the PAK2 AID.

concentration up to which no effect on the merlin kinase was seen (merlin kinase; no effect up to this concentration): > 1 mM
Molecule: NCCNS(=O)(=O)c1cccc2cnccc12 [H9]

Molecule: COC(=O)[C@@]1(O)C[C@H]2O[C@]1(C)n1c3ccccc3c3c4c(c5c6ccccc6n2c5c31)C(=O)NC4 [K252a]
concentration range inhibiting the merlin kinase (merlin kinase): mM range

concentration range inhibiting the merlin kinase (merlin kinase): mM range
Molecule: CCCCCCOC(=O)[C@]1(O)C[C@@H]2O[C@@]1(C)n1c3ccccc3c3c4c(c5c6ccccc6n2c5c31)C(=O)NC4 [K-5720]

B1: PAK1 (transfected) (protein)
chain: MSNNGLDIQDKPPAPPMRNTSTMIGAGSKDAGTLNHGSKPLPPNPEEKKKKDRFYRSILPGDKTNKKKEKERPEISLPSDFEHTIHVGFDAVTGEFTGMPEQWARLLQTSNITKSEQKKNPQAVLDVLEFYNSKKTSNSQKYMSFTDKSAEDYNSSNALNVKAVSETPAVPPVSEDEDDDDDDATPPPVIAPRPEHTKSVYTRSVIEPLPVTPTRDVATSPISPTENNTTPPDALTRNTEKQKKKPKMSDEEILEKLRSIVSVGDPKKKYTRFEKIGQGASGTVYTAMDVATGQEVAIKQMNLQQQPKKELIINEILVMRENKNPNIVNYLDSYLVGDELWVVMEYLAGGSLTDVVTETCMDEGQIAAVCRECLQALEFLHSNQVIHRDIKSDNILLGMDGSVKLTDFGFCAQITPEQSKRSTMVGTPYWMAPEVVTRKAYGPKVDIWSLGIMAIEMIEGEPPYLNENPLRALYLIATNGTPELQNPEKLSAIFRDFLNRCLEMDVEKRGSAKELLQHQFLKIAKPLSSLTPLIAAAKEATKNNH
phosphorylation of the pseudo-substrate in an in-vitro kinase assay [1]: Other kinases, which are known effectors of cdc42/Rac, including PAK1, LIM-kinase and JNK, did not induce phosphorylation of merlin in these assays

B2: PAK3 (transfected) (protein)
chain: MSDGLDNEEKPPAPPLRMNSNNRDSSALNHSSKPLPMAPEEKNKKARLRSIFPGGGDKTNKKKEKERPEISLPSDFEHTIHVGFDAVTGEFTGIPEQWARLLQTSNITKLEQKKNPQAVLDVLKFYDSKETVNNQKYMSFTSGDKSAHGYIAAHPSSTKTASEPPLAPPVSEEEDEEEEEEEDENEPPPVIAPRPEHTKSIYTRSVVESIASPAVPNKEVTPPSAENANSSTLYRNTDRQRKKSKMTDEEILEKLRSIVSVGDPKKKYTRFEKIGQGASGTVYTALDIATGQEVAIKQMNLQQQPKKELIINEILVMRENKNPNIVNYLDSYLVGDELWVVMEYLAGGSLTDVVTETCMDEGQIAAVCRECLQALDFLHSNQVIHRDIKSDNILLGMDGSVKLTDFGFCAQITPEQSKRSTMVGTPYWMAPEVVTRKAYGPKVDIWSLGIMAIEMVEGEPPYLNENPLRALYLIATNGTPELQNPERLSAVFRDFLNRCLEMDVDRRGSAKELLQHPFLKLAKPLSSLTPLIIAAKEAIKNSSR
phosphorylation of the pseudo-substrate in an in-vitro kinase assay [1]: Only extracts from cells transfected with PAK2 and PAK3 were able to effectively phosphorylate the pseudo-substrate

B3: PAK2 of NIH3T3 cell extracts (endogenous) (protein)
chain: SDNGELEDKPPAPPVRMSSTIFSTGGKDPLSANHSLKPLPSVPEEKKPRNKIISIFSGTEKGSKKKEKERPEISPPSDFEHTIHVGFDAVTGEFTGMPEQWARLLQTSNITKLEQKKNPQAVLDVLKFYDSNTVKQKYLSFTPPEKDGFPSGTPALNTKGSETSAVVTEEDDDDEDAAPPVIAPRPDHTKSIYTRSVIDPIPAPVGDSNVDSGAKSSDKQKKKAKMTDEEIMEKLRTIVSIGDPKKKYTRYEKIGQGASGTVFTATDVALGQEVAIKQINLQKQPKKELIINEILVMKELKNPNIVNFLDSYLVGDELFVVMEYLAGGSLTDVVTETCMDEAQIAAVCRECLQALEFLHANQVIHRDIKSDNVLLGMEGSVKLTDFGFCAQITPEQSKRSTMVGTPYWMAPEVVTRKAYGPKVDIWSLGIMAIEMVEGEPPYLNENPLRALYLIATNGTPELQNPEKLSPIFRDFLNRCLEMDVEKRGSAKELLQHPFLKLAKPLSSLTPLILAAKEAMKSNR
kinase activity on the GST-merlin substrate after immunodepletion of PAK2 [1]: extracts immunodepleted for PAK2 (+PAK2 Ab) had a 2-3 fold reduction in kinase activity

B4: endogenous PAK1 of RT4 cells (protein)
chain: SNNGLDVQDKPPAPPMRNTSTMIGAGSKDPGTLNHGSKPLPPNPEEKKKKDRFYRSILAGDKTNKKKEKERPEISLPSDFEHTIHVGFDAVTGEFTGMPEQWARLLQTSNITKSEQKKNPQAVLDVLEFYNSKKTSNSQKYMSFTDKSAEDYNSSNTLNVKTVSETPAVPPVSEDEDDDDDATPPPVIAPRPEHTKSVYTRSVIEPLPVTPTRDVATSPISPTENNTTPPDALTRNTEKQKKKPKMSDEEILEKLRSIVSVGDPKKKYTRFEKIGQGASGTVYTAMDVATGQEVAIKQMNLQQQPKKELIINEILVMRENKNPNIVNYLDSYLVGDELWVVMEYLAGGSLTDVVTETCMDEGQIAAVCRECLQALEFLHSNQVIHRDIKSDNILLGMDGSVKLTDFGFCAQITPEQSKRSTMVGTPYWMAPEVVTRKAYGPKVDIWSLGIMAIEMIEGEPPYLNENPLRALYLIATNGTPELQNPEKLSAIFRDFLNRCLEMDVEKRGSAKELLQHQFLKIAKPLSSLTPLIAAAKEATKNNH
phosphorylation status (activation) of PAK1 by 2-dimensional protein analysis [2]: The basal levels of activated PAK1 were reduced under conditions of high merlin expression compared to conditions of low merlin expression

B5: PAK2 AID: auto-inhibitory domain of PAK2, residues 82-146, expressed from pcDNA3; dominant negative fragment (protein)
chain: HTIHVGFDAVTGEFTGMPEQWARLLQTSNITKLEQKKNPQAVLDVLKFYDSNTVKQKYLSFTPPE
decrease in the ratio of hyper-phosphorylated to hypo-phosphorylated merlin [3]: 3-4 fold

B6: PAK2 wild-type (transfected) (protein)
chain: MSDNGELEDKPPAPPVRMSSTIFSTGGKDPLSANHSLKPLPSVPEEKKPRHKIISIFSGTEKGSKKKEKERPEISPPSDFEHTIHVGFDAVTGEFTGMPEQWARLLQTSNITKLEQKKNPQAVLDVLKFYDSNTVKQKYLSFTPPEKDGFPSGTPALNAKGTEAPAVVTEEEDDDEETAPPVIAPRPDHTKSIYTRSVIDPVPAPVGDSHVDGAAKSLDKQKKKTKMTDEEIMEKLRTIVSIGDPKKKYTRYEKIGQGASGTVFTATDVALGQEVAIKQINLQKQPKKELIINEILVMKELKNPNIVNFLDSYLVGDELFVVMEYLAGGSLTDVVTETCMDEAQIAAVCRECLQALEFLHANQVIHRDIKSDNVLLGMEGSVKLTDFGFCAQITPEQSKRSTMVGTPYWMAPEVVTRKAYGPKVDIWSLGIMAIEMVEGEPPYLNENPLRALYLIATNGTPELQNPEKLSPIFRDFLNRCLEMDVEKRGSAKELLQHPFLKLAKPLSSLTPLIMAAKEAMKSNR
phosphorylation of the pseudo-substrate in an in-vitro kinase assay [1]: Only extracts from cells transfected with PAK2 and PAK3 were able to effectively phosphorylate the pseudo-substrate
